Laboratory results reported in publication PMC5871880, “Structural insights into the RNA methyltransferase domain of METTL16” (Scientific Reports, 2018).

Target: the molecule itself
Test: SEC; analytical SEC on Superdex 200 10/300 GL; samples ~21 µM in 100 µl; 25 mM HEPES pH 7.5, 100 mM KCl, 50 mM NaCl, 1 mM TCEP, 1 mM MgCl2; molecular weights from a standard curve

B1: human methyltransferase-like protein 16 (METTL16), residues 1-562 (enzyme)
chain: SNAMALSKSMHARNRYKDKPPDFAYLASKYPDFKQHVQINLNGRVSLNFKDPEAVRALTCTLLREDFGLSIDIPLERLIPTVPLRLNYIHWVEDLIGHQDSDKSTLRRGIDIGTGASCIYPLLGATLNGWYFLATEVDDMCFNYAKKNVEQNNLSDLIKVVKVPQKTLLMDALKEESEIIYDFCMCNPPFFANQLEAKGVNSRNPRRPPPSSVNTGGITEIMAEGGELEFVKRIIHDSLQLKKRLRWYSCMLGKKCSLAPLKEELRIQGVPKVTYTEFCQGRTMRWALAWSFYDDVTVPSPPSKRRKLEKPRKPITFVVLASVMKELSLKASPLRSETAEGIVVVTTWIEKILTDLKVQHKRVPCGKEEVSLFLTAIENSWIHLRRKKRERVRQLREVPRAPEDVIQALEEKKPTPKESGNSQELARGPQERTPCGPALREGEAAAVEGPCPSQESLSQEENPEPTEDERSEEKGGVEVLESCQGSSNGAQDQEASEQFGSPVAERGKRLPGVAGQYLFKCLINVKKEVDDALVEMHWVEGQNRDLMNQLCTYIRNQIFRLVAVN
notes: Ser-Asn-Ala linker encoded in the pMCSG68 vector, between the TEV protease cleavage site and residue 1; METTL16, human, UniProt Q86W50, residues 1-562; also called full-length METTL16; source: E. coli BL21 Gold, purified (HisTrap HP, TEV cleavage, SEC); not shown: His6, N-terminal, cleaved
stoichiometry N: 2
